The values that follow come from the supplement of paper PMC10567573.

± gives the standard deviation.

A short description of the data set: protein stability index of a GFP-peptide fusion (GPS, HEK-293T) (PSI 1-6); higher = more stable.
Where [1] appears, read: treatment: DMSO, c terminus: a fixed tail appended.
Where [2] appears, read: treatment: MLN4924 1 uM, 8 h, c terminus: a fixed tail appended.
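Further: 24-mer peptide tiles fused after GFP, lentivirally expressed, FACS-sorted into six equal bins by GFP/DsRed ratio, decoded by Illumina sequencing, PSI is the read-weighted mean bin number.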

TPLLNGSSQDRMFETMAIEIEQLL [GOSR1]: the protein stability index by setting is: under setting [1], 3.06 ± 0.27; under setting [2], 3.28 ± 0.23. In the same order, the values of TPPTTTAEIATASASASTTTTVTA [SNAP91] are 5.39 ± 0.15 and 5.3 ± 0.13. In the same order, the values of TPQPTALTFAKSSWARQESLQERK [AUP1] are 4.43 ± 0.14 and 4.48 ± 0.19.

TQSDEENGRACEMNGEECAEDLRM [IKZF1] yielded a protein stability index under setting [1] of 5.66 ± 0.28 and a protein stability index under setting [2] of 5.66 ± 0.19. For TRKLSPGKKRCKDIKRLLVNFMYL [SMG5], in that order: 2.53 ± 0.45 and 2.62 ± 0.48. Take TRQLSEENANLQEYVEKETQEKKR [MTUS2]: the protein stability index by setting is: under setting [1], 5.33 ± 0.14; under setting [2], 5.56 ± 0.12. In the same order, the values of TSGMGFHAPKIGSNGVEMAAKFPS [SDE2] are 3.53 ± 0.28 and 3.5 ± 0.27. For TSHSLPESSVPSTVGCSSQHTPDQ [PLEKHN1], in that order: 5.36 ± 0.17 and 5.28 ± 0.16. Consider TSNGWGVTDCKHTEDVGVVCSDKR [LOXL2], for which the protein stability index reads like this: under setting [1], 4.57 ± 0.092; under setting [2], 4.46 ± 0.41.

TSTVNSAREELMESRMRIESLSSQ [LMNB1]: the protein stability index reads like this: under setting [1], 4.54 ± 0.15; under setting [2], 4.51 ± 0.18. Consider TSYYIRYRGAVYADSGNFKRCINL [FEM1C], for which the protein stability index came to 2.48 ± 0.51 under setting [1] and 2.33 ± 0.57 under setting [2]. Turning to TTEKQRLVKKLQDSVLERWVNDPQ [GOLPH3L], the protein stability index reads like this: under setting [1], 3.71 ± 0.25; under setting [2], 4.05 ± 0.076. Take TVERPFYDLWASDNPLDRPLVGQD [NOP53]: the protein stability index came out at 4.09 ± 0.37 under setting [1] and 4.2 ± 0.15 under setting [2]. For the sequence TWVPMFLSTLLAPYQALRLWARGT [SOAT2], the protein stability index stood at 2.81 ± 0.48 under setting [1] and 2.72 ± 0.64 under setting [2].

For TWYLKTIDICHDHFGWYLGWGDCV [DHCR7], the protein stability index by setting is: under setting [1], 3.01 ± 0.34; under setting [2], 3.1 ± 0.53. In the same order, the values of TYLSKVDPDGKKIKQIQQLFEEIL [FBXO33] are 2.25 ± 0.24 and 1.84 ± 0.26. Turning to TYRSLLESEDCKLPCNPCATTNAS [KRT34], the protein stability index is, setting by setting: under setting [1], 3.9 ± 0.25; under setting [2], 4.09 ± 0.2. TYRSLLESEDCKLPSNPCATTNAC [KRT33B]: the protein stability index reads like this: under setting [1], 3.99 ± 0.26; under setting [2], 4.04 ± 0.072. For VCRTEGTPHMLLDLSDLLQVDSLR [BRF1], in that order: 2.31 ± 0.23 and 2.29 ± 0.3.

VDENDSHEGEDQFLSLEASTETLV [DLC1]: the protein stability index under setting [1] worked out at 5.66 ± 0.16 and the protein stability index under setting [2] was found to be 5.56 ± 0.2. For VDLFKQLCEKEPLGNVLFSPICLS [SERPINB5], in that order: 1.98 ± 0.18 and 2.08 ± 0.41. In the same order, the values of VDRTHALMKKIGQCPMRVQKEVAG [CRYL1] are 3.45 ± 0.36 and 3.65 ± 0.35.

VDWRRVSRLQEDPEGTENPLGVDE [SLA] gave a protein stability index under setting [1] of 4.46 ± 0.36. With VERILARGENLEHLRNKTEDLEAT [VAMP8], the protein stability index reads like this: under setting [1], 5.33 ± 0.2; under setting [2], 5.37 ± 0.14. Turning to VESSLDKVVLSDAYAHPQQKVAVY [TRADD], the protein stability index under setting [1] came to 2.88 ± 0.29 and the protein stability index under setting [2] worked out at 3.26 ± 0.12. For VFGVPLTVNVQRTGQPLPQSIQQA [DLC1], in that order: 2.79 ± 0.2 and 3 ± 0.43. In the same order, the values of VFNAARDGKLRLLTKLLASKSKEE [FEM1C] are 2.48 ± 0.21 and 2.75 ± 0.3. For VFVCRVSAVLFYVNMYVSIVFFGL [P2RY14], in that order: 3.36 ± 0.33 and 3.35 ± 0.54. For the sequence VFVLIDEVESLTAARNACRAGTEP [TRIP13], the protein stability index turned out to be 2.35 ± 0.2 under setting [1] and 2.63 ± 0.36 under setting [2]. For the sequence VGEFPIISPGRVYEYTSCTTFSTT [FBXO3], the protein stability index by setting is: under setting [1], 2.3 ± 0.22; under setting [2], 2.33 ± 0.32. Take VGVDGVRAFLQTYSHEVSLTADSR [PCDHGA10]: the protein stability index is, setting by setting: under setting [1], 2.49 ± 0.37; under setting [2], 2.61 ± 0.39. For VHNAMDNYECNLYTFLYLVCISTK [FEM1B], in that order: 2.82 ± 0.59 and 2.2 ± 0.53. In the same order, the values of VHRDLKPENLLLASKCKGAAVKLA [CAMK2B] are 2.83 ± 0.38 and 2.75 ± 0.25.

In turn, VHRKSCSTGEAGTDGDHNVYPRPP [ZC2HC1C] displayed a protein stability index under setting [1] of 4.29 ± 0.33 and a protein stability index under setting [2] of 4.45 ± 0.37. For VILFSSAVYFAEADDPTSGFSSIP [KCNA3], in that order: 3.01 ± 1.6 and 2.56 ± 1.1. In the same order, the values of VKGRVRCLTAGPEVAAQLPAVRQL [ZSWIM9] are 3.19 ± 0.18 and 3.12 ± 0.43. For VKKKKEEGVIDSSDKEIVAEAERL [EIF5], in that order: 5.04 ± 0.59 and 5.46 ± 0.2. VKLNVGGSLHYTTLRTLTGQDTML [KCTD13]: the protein stability index runs as follows: under setting [1], 2.45 ± 0.47; under setting [2], 2.27 ± 0.28. For VKLPLPAERVTLADFKGVLQRPSY [DVL3], in that order: 2.5 ± 0.19 and 2.73 ± 0.36. VKYNSCADRPFSAPWWFWLSLTGV [POMT2]: the protein stability index worked out at 2.59 ± 0.35 under setting [1] and 2.72 ± 0.6 under setting [2]. For VLDILTRLPESVERLTGVSISQVN [FLOT1], in that order: 2.43 ± 0.23 and 2.3 ± 0.48. With VLEVTEESIDFDQGELADQDVDPV [FBXO33], the protein stability index turned out to be 5.34 ± 0.19 under setting [1] and 5.57 ± 0.2 under setting [2].

Take VLFLDHVMYTIHMGCHGFRDPFEC [IKZF1]: the protein stability index is, setting by setting: under setting [1], 3 ± 0.26; under setting [2], 2.96 ± 0.49. VLRGRLYAIAGYDGNSLLSSIECY [KLHL12]: the protein stability index is, setting by setting: under setting [1], 1.91 ± 0.14; under setting [2], 2.28 ± 0.13. In the same order, the values of VLRTYLELVLCVLVSIRNNRNLQK [FBXO33] are 2.96 ± 0.71 and 2.64 ± 0.51. As to VPKDQRLQAIKAAIMLLPDENREV [DLC1], the protein stability index was found to be 3.82 ± 0.18 under setting [1] and 3.85 ± 0.42 under setting [2].

Sequence VQLATLAQRVKEVLPHVPLGVIQR [AUP1] showed a protein stability index under setting [1] of 2.51 ± 0.16 and a protein stability index under setting [2] of 2.19 ± 0.29. In the same order, the values of VQSLQLSPRTRGSWSQPQPLKAPC [RASAL3] are 3.54 ± 0.41 and 3.68 ± 0.098.

Sequence VQYLGQAPELLGGAEPGTYLTGTI [ADAMTS4] displayed a protein stability index under setting [1] of 2.33 ± 0.7 and a protein stability index under setting [2] of 2.98 ± 0.72. With VRANDINYQDQIPRTLEEFVGFH [FEM1B], the protein stability index is, setting by setting: (treatment: DMSO, c terminus: native) 3.21 ± 0.16; (treatment: MLN4924 1 uM, 8 h, c terminus: native) 3.2 ± 0.48.

Turning to VRENVPRVLNSAKEKSSTVPIPTV [SOAT1], the protein stability index by setting is: under setting [1], 4.161 ± 0.036; under setting [2], 4.16 ± 0.14. For VRKPAEAERYKLERLAEAEKSQLI [FLOT1], in that order: 4.46 ± 0.26 and 4.49 ± 0.14.

VSCGFGGGAGSGFGGGYGGGLGGG [KRT13] came in with a protein stability index under setting [1] of 2.32 ± 0.35 and a protein stability index under setting [2] of 2.2 ± 0.5. For VSIIDTELKVKDSQPIDLSACTVA [TRIP13], in that order: 3.28 ± 0.45 and 3.33 ± 0.29. For VSITLLALVYLPGVIAAIVQLHNG [STEAP1], in that order: 3.5 ± 0.33 and 3.11 ± 0.14. In the same order, the values of VSPPESPTVTTSWQSESLPVSLSA [BCL2L13] are 4.43 ± 0.08 and 4.37 ± 0.27. In the case of VSTVSHADADCFVCVFLSHGEGNH [CASP6], the protein stability index stood at 2.37 ± 0.2 under setting [1] and 2.18 ± 0.17 under setting [2]. In the same order, the values of VTFRDVAVDFTQEEWGQLDPTQRI [ZNF8] are 3.8 ± 0.36 and 3.82 ± 0.33.

As to VTLLVALKVRYRERITILRGNHES [PPP2CA], the protein stability index turned out to be 2.78 ± 0.5 under setting [1] and 2.67 ± 0.44 under setting [2]. In the same order, the values of VTVRVPTHEEGSYLFWEFATDNYD [ACBD3] are 2.19 ± 0.34 and 2.31 ± 0.62. For the sequence VVEKLNLFLDLLQSYKDLCERHEK [SNX8], the protein stability index came to 2.19 ± 0.32 under setting [1] and 2.23 ± 0.25 under setting [2]. As for VVENAEKILGYLNTNVLSRDLIPP [SLC6A17], the protein stability index is, setting by setting: under setting [1], 2.82 ± 0.15; under setting [2], 2.84 ± 0.38. For VVFPYTSKSCMRAVLEYLYTGMFT [RHOBTB2], in that order: 2.81 ± 0.42 and 2.77 ± 1.1.

For VVTMTTVGYGDMHPVTIGGKIVGS [KCNA3], the protein stability index reads like this: under setting [1], 2.33 ± 0.4; under setting [2], 2.37 ± 0.45. As to VVYSKAASVPKVETVKSDNKDDDI [EIF5], the protein stability index runs as follows: under setting [1], 5.23 ± 0.13; under setting [2], 5.19 ± 0.11. For VWDASRAPRGTPDPGLGEGPALWL [PLEKHN1], in that order: 2.74 ± 0.25 and 2.79 ± 0.38.

As to VYKDGEHGEEQRITIEPGTSYRLQ [PTPRD], the protein stability index is, setting by setting: under setting [1], 4.81 ± 0.15; under setting [2], 5.03 ± 0.16. In the same order, the values of VYSQASTMSIPVAMETDGPLFEDV [PPP2R5C] are 3.94 ± 0.31 and 4.14 ± 0.15. In the same order, the values of VYTGKLLLNLVDHTEVVRDLTFAP [WSB1] are 2.2 ± 0.28 and 2.36 ± 0.35. In the same order, the values of WALLCLGLLLPGGGAAWSIGAAPF [EMID1] are 3.54 ± 0.26 and 3.22 ± 0.19. Regarding WCLHVNNWLQVSFTAKHANKVKVL [FSD1], the protein stability index was 3.04 ± 0.73 under setting [1] and 2.93 ± 0.5 under setting [2]. In the same order, the values of WDMNSAPRLVSETAERKQEQKTGT [MFSD9] are 5.44 ± 0.2 and 5.38 ± 0.13.
